Experimental data: the FLAb antibody collection (doi:10.1101/2023.12.08.570889)

Each binder was assayed against IL36R (assay: Kd (SPR)).

Binder	Kd
unnamed (protein) chain 1: QVQLVQSGAEVKKPGASVKVSCKASGYSFTSSWIHWVKQAPGQGLEWMGEINPGNVRTNYNENFRNKVTMTVDTSISTAYMELSRLRSDDTAVYYCTVVFYGEPYFPYWGQGTLVTVSS chain 2: QIVLTQSPGTLSLSPGERATMTCTASSSVSSSYFHWYQQKPGQAPRLWIYRTSRLASGVPDRFSGSGSGTDFTLTISRLEPEDAATYYCHQFHRSPLTFGAGTKLEIK	0.964 nM
unnamed (protein) chain 1: QVQLVQSGAEVKKPGASVKVSCKASGYSFTSSWIHWVKQAPGQGLEWMGEINPGNVRTNYNENFRNKVTMTVDTSISTAYMELSRLRSDDTAVYYCTRSRYGEPWFDYWGQGTLVTVSS chain 2: QIVLTQSPGTLSLSPGERATMTCTASSSVSSSYFHWYQQKPGQAPRLWIYRTSRLASGVPDRFSGSGSGTDFTLTISRLEPEDAATYYCHQFHRSPLTFGAGTKLEIK	24.5 nM
unnamed (protein) chain 1: QVQLVQSGAEVKKPGASVKVSCKASGYSFTSSWIHWVKQAPGQGLEWMGEINPGNVRTNYNENFRNKVTMTVDTSISTAYMELSRLRSDDTAVYYCTRVRYGEPWFDYWGQGTLVTVSS chain 2: QIVLTQSPGTLSLSPGERATMTCTASSSVSSSYFHWYQQKPGQAPRLWIYRTSRLASGVPDRFSGSGSGTDFTLTISRLEPEDAATYYCHQFHRSPLTFGAGTKLEIK	0.888 nM
unnamed (protein) chain 1: QVQLVQSGAEVKKPGASVKVSCKASGYSFTSSWIHWVKQAPGQGLEWMGEINPGNVRTNYNENFRNKVTMTVDTSISTAYMELSRLRSDDTAVYYCTRVSYGEPWFDYWGQGTLVTVSS chain 2: QIVLTQSPGTLSLSPGERATMTCTASSSVSSSYFHWYQQKPGQAPRLWIYRTSRLASGVPDRFSGSGSGTDFTLTISRLEPEDAATYYCHQFHRSPLTFGAGTKLEIK	1.4 nM
unnamed (protein) chain 1: QVQLVQSGAEVKKPGASVKVSCKASGYSFTSSWIHWVKQAPGQGLEWMGEINPGNVRTNYNENFRNKVTMTVDTSISTAYMELSRLRSDDTAVYYCTRIRYGEPYFDYWGQGTLVTVSS chain 2: QIVLTQSPGTLSLSPGERATMTCTASSSVSSSYFHWYQQKPGQAPRLWIYRTSRLASGVPDRFSGSGSGTDFTLTISRLEPEDAATYYCHQFHRSPLTFGAGTKLEIK	12.3 nM
unnamed (protein) chain 1: QVQLVQSGAEVKKPGASVKVSCKASGYSFTSSWIHWVKQAPGQGLEWMGEINPGNVRTNYNENFRNKVTMTVDTSISTAYMELSRLRSDDTAVYYCTRVRYGYPWFDYWGQGTLVTVSS chain 2: QIVLTQSPGTLSLSPGERATMTCTASSSVSSSYFHWYQQKPGQAPRLWIYRTSRLASGVPDRFSGSGSGTDFTLTISRLEPEDAATYYCHQFHRSPLTFGAGTKLEIK	1.04 nM
unnamed (protein) chain 1: QVQLVQSGAEVKKPGASVKVSCKASGYSFTSSWIHWVKQAPGQGLEWMGEINPGNVRTNYNENFRNKVTMTVDTSISTAYMELSRLRSDDTAVYYCTRVRFGYPWFDYWGQGTLVTVSS chain 2: QIVLTQSPGTLSLSPGERATMTCTASSSVSSSYFHWYQQKPGQAPRLWIYRTSRLASGVPDRFSGSGSGTDFTLTISRLEPEDAATYYCHQFHRSPLTFGAGTKLEIK	0.689 nM

The next lines start with the values.

Kd	Binder
1.87 nM	unnamed (protein) chain 1: QVQLVQSGAEVKKPGASVKVSCKASGYSFTSSWIHWVKQAPGQGLEWMGEINPGNVRTNYNENFRNKVTMTVDTSISTAYMELSRLRSDDTAVYYCTRVQYGYPYFDYWGQGTLVTVSS chain 2: QIVLTQSPGTLSLSPGERATMTCTASSSVSSSYFHWYQQKPGQAPRLWIYRTSRLASGVPDRFSGSGSGTDFTLTISRLEPEDAATYYCHQFHRSPLTFGAGTKLEIK
3.28 nM	unnamed (protein) chain 1: QVQLVQSGAEVKKPGASVKVSCKASGYSFTSSWIHWVKQAPGQGLEWMGEINPGNVRTNYNENFRNKVTMTVDTSISTAYMELSRLRSDDTAVYYCTRVRFGEPYFDYWGQGTLVTVSS chain 2: QIVLTQSPGTLSLSPGERATMTCTASSSVSSSYFHWYQQKPGQAPRLWIYRTSRLASGVPDRFSGSGSGTDFTLTISRLEPEDAATYYCHQFHRSPLTFGAGTKLEIK
0.759 nM	unnamed (protein) chain 1: QVQLVQSGAEVKKPGASVKVSCKASGYSFTSSWIHWVKQAPGQGLEWMGEINPGNVRTNYNENFRNKVTMTVDTSISTAYMELSRLRSDDTAVYYCTRVSYGEPYFDYWGQGTLVTVSS chain 2: QIVLTQSPGTLSLSPGERATMTCTASSSVSSSYFHWYQQKPGQAPRLWIYRTSRLASGVPDRFSGSGSGTDFTLTISRLEPEDAATYYCHQFHRSPLTFGAGTKLEIK
3.16 nM	unnamed (protein) chain 1: QVQLVQSGAEVKKPGASVKVSCKASGYSFTSSWIHWVKQAPGQGLEWMGEINPGNVRTNYNENFRNKVTMTVDTSISTAYMELSRLRSDDTAVYYCTRVMYGEPYFDYWGQGTLVTVSS chain 2: QIVLTQSPGTLSLSPGERATMTCTASSSVSSSYFHWYQQKPGQAPRLWIYRTSRLASGVPDRFSGSGSGTDFTLTISRLEPEDAATYYCHQFHRSPLTFGAGTKLEIK
1.61 nM	unnamed (protein) chain 1: QVQLVQSGAEVKKPGASVKVSCKASGYSFTSSWIHWVKQAPGQGLEWMGEINPGNVRTNYNENFRNKVTMTVDTSISTAYMELSRLRSDDTAVYYCTRVQFGEPYFDYWGQGTLVTVSS chain 2: QIVLTQSPGTLSLSPGERATMTCTASSSVSSSYFHWYQQKPGQAPRLWIYRTSRLASGVPDRFSGSGSGTDFTLTISRLEPEDAATYYCHQFHRSPLTFGAGTKLEIK
0.617 nM	unnamed (protein) chain 1: QVQLVQSGAEVKKPGASVKVSCKASGYSFTSSWIHWVKQAPGQGLEWMGEINPGNVRTNYNENFRNKVTMTVDTSISTAYMELSRLRSDDTAVYYCTRVQYGEPYFDYWGQGTLVTVSS chain 2: QIVLTQSPGTLSLSPGERATMTCTASSSVSSSYFHWYQQKPGQAPRLWIYRTSRLASGVPDRFSGSGSGTDFTLTISRLEPEDAATYYCHQFHRSPLTFGAGTKLEIK

The binders below were run against FXI (assay: Kd (SPR)).

Binder	Kd
unnamed (protein) chain 1: EVQLLESGGGLVQPGGSLRLSCAASGFTFSQYGMDWVRQAPGKGLEWVSGIGPSGGSTVYADSVKGRFTISRDNSKNTLYLQMNSLRAEDTAVYYCTRDGDAYYYAFDVWGQGTTVTVSS chain 2: DIQMTQSPSSLSASVGDRVTITCQASQDISNYLNWYQQKPGKAPKLLIYDASNLETGVPSRFSGSGSGTDFTFTISSLQPEDIATYYCQQADSFPVTFGGGTKVEIK	625 nM
unnamed (protein) chain 1: EVQLLESGGGLVQPGGSLRLSCAASGFTFSQYGMDWVRQAPGKGLEWVSGIGPSGGSTVYADSVKGRFTISRDNSKNTLYLQMNSLRAEDTAVYYCARGGPAWYYAFDVWGQGTTVTVSS chain 2: DIQMTQSPSSLSASVGDRVTITCQASQDISNYLNWYQQKPGKAPKLLIYDASNLETGVPSRFSGSGSGTDFTFTISSLQPEDIATYYCQQADSFPVTFGGGTKVEIK	204 nM
unnamed (protein) chain 1: EVQLLESGGGLVQPGGSLRLSCAASGFTFSQYGMDWVRQAPGKGLEWVSGIGPSGGSTVYADSVKGRFTISRDNSKNTLYLQMNSLRAEDTAVYYCTRGGTAYYYAFDVWGQGTTVTVSS chain 2: DIQMTQSPSSLSASVGDRVTITCQASQDISNYLNWYQQKPGKAPKLLIYDASNLETGVPSRFSGSGSGTDFTFTISSLQPEDIATYYCQQADSFPVTFGGGTKVEIK	1410 nM

Next, values leading:

Kd	Binder
573 nM	unnamed (protein) chain 1: EVQLLESGGGLVQPGGSLRLSCAASGFTFSQYGMDWVRQAPGKGLEWVSGIGPSGGSTVYADSVKGRFTISRDNSKNTLYLQMNSLRAEDTAVYYCTRDGPDYYYAFDYWGQGTTVTVSS chain 2: DIQMTQSPSSLSASVGDRVTITCQASQDISNYLNWYQQKPGKAPKLLIYDASNLETGVPSRFSGSGSGTDFTFTISSLQPEDIATYYCQQADSFPVTFGGGTKVEIK
822 nM	unnamed (protein) chain 1: EVQLLESGGGLVQPGGSLRLSCAASGFTFSQYGMDWVRQAPGKGLEWVSGIGPSGGSTVYADSVKGRFTISRDNSKNTLYLQMNSLRAEDTAVYYCARGGSAYYYAFDVWGQGTTVTVSS chain 2: DIQMTQSPSSLSASVGDRVTITCQASQDISNYLNWYQQKPGKAPKLLIYDASNLETGVPSRFSGSGSGTDFTFTISSLQPEDIATYYCQQADSFPVTFGGGTKVEIK
241 nM	unnamed (protein) chain 1: EVQLLESGGGLVQPGGSLRLSCAASGFTFSQYGMDWVRQAPGKGLEWVSGIGPSGGSTVYADSVKGRFTISRDNSKNTLYLQMNSLRAEDTAVYYCTRGGPAWYYAFDVWGQGTTVTVSS chain 2: DIQMTQSPSSLSASVGDRVTITCQASQDISNYLNWYQQKPGKAPKLLIYDASNLETGVPSRFSGSGSGTDFTFTISSLQPEDIATYYCQQADSFPVTFGGGTKVEIK
